Measurements reported in the nanobody polyreactivity screen of Harvey et al. (2022).

Assay: yeast display, Sf9 membrane polyspecificity reagent, FACS + sequencing; frameworks hold sequencing errors
In short: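 Polyreactivity labels are assigned by the sorting gate from which each nanobody was recovered. The gates were low and high (top ~1%), set on anti-HA fluorescence for expression and streptavidin fluorescence for reagent binding. Before sorting, galactose-induced (36–48 hours) yeast display cells were stained for 1 hour at 4 °C with 10% biotinylated, detergent-solubilized Sf9 membrane reagent.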

Sequence	polyreactivity (PSR sort gate)
QDPLVESGGLLVQAGGSLRLSCAASGFTFSRYAMGWYRQAPGKERELVAVIDNSGGTTYYADSVKGRFTISRDNAKNTVYLQMNSLKPEDTAVYYCAAKRIPRYYSASDYWGQGTQVTVSS	low polyreactivity
QVQLVESGGGLVQAGGSLRLSCAASGRIFVTNAMGWYRQAPGNERELVAGLNRSGDITYYADSVKGRFTISRDNAKNTVYLQMNSLKPEDTAVYYCAVDFYVYRWSPYGDVYRYDYWGQGTQVTVSS	high polyreactivity
QVQLVESGGGLVQAGGSLRLSCAASGSTFDGNAMGWYRQAPGTERELVAAITSGGSTNYADSVKGRFTISRDNAKNTVYLQMNSLKPEDTAVYYCAADTVSFSILYDYWGQGTQVTVSS	low polyreactivity
QVQLVESGGGLVQAGGSLRLSCAASGSIFVYYAMGWYRQAPGKERELVAAITRRGGSTYYADSVKGRFTISRDNAKNTVYLQMNSLKPEDTAVYYCNSYTSRQYGLEYWGQGTQVSVSS	high polyreactivity
QVQLVESGGGLVQAGGSLRLSCAASGRTFRYHAMGWYRQAPGKERELVAGISWSGTSTYYADSVKGRFTISRDNAKNTVYLQMNSLKPEDTAVYYCNAVFRYRYDYWGQGTQVTVSS	high polyreactivity
QVQLVESGGGLVQAGGSLRLSCAASGSIFYYAMGWYRQAPGKERELVAAITTGDGTNYADSVKGRFTISRDNAKNTVYLQMNSLKPEDTAVYYCNSLPYQVWKRYSWGQGTQVTVSS	low polyreactivity
QVHLLERGGGLVQAGGSLRLSCMASGSILGDSMSWYRQAPGKEHELVATIYDGGITYYADSMKGRFTISRDNAKNSVYLQMNSLRPEDTAVYYCGASFEGYSYHVYCGQGTQVTVSS	low polyreactivity
QVQLVESGGGLVQAGGSLRLSCAASGFIFYNYAMGWYRQAPGKERELVAAISASGGRTYYADSVKGRFTISRDNAKNTVYLQMNRLKPEETAVYYCNARVNYKGYDYWGQGTQVTVSS	high polyreactivity
QVQLVESGGGLVQAGGSLRLSCAASGYISNANAMGCYRQAPGKERELVAAITWSGGSTYADSVKGRFTITRDNAKNTVYLQMNSLKPEDTAVYYCAVGPYRVAKYNYWGQGTQVTVSS	low polyreactivity
QVHLVESGGGLVQAGGSLRLSCAASGSIFSSNTMGWYRQATGKERELVAAISWSGGRTRYADSVKGRFTISRDNAKNTVYLQMNSLKPEDNAVYYCNAGTVASTLYDVRTHFDYWGQGTQVTVSS	low polyreactivity
QVHLVESGGGLVQAGGSLRLSCAASGRIFGKYAMGWYRQAPGKERELVAAISSSGRTNSADSVKGRFTISRDNAKNTVYLQMNSLKPADTAVYYCAVRVLIHTNTRRLDYWGQGTQVTVSS	high polyreactivity
QVQLVESGGGLVQAGGSLRLSCAASGSIFGAYTMGWYRPAPGKERELVAALSIGGSTNYADSVKGRFTISRDNAKNTVYLQMNSLKPEDTAVYYCNAEPHREDWWWAIGLYDYWGQGTQVTVSS	high polyreactivity
QVQLVESGGGLVQAGGSLRLSCAASGRTLWRYAMGWYRQAPGKERELVASIRSGGSTYYADSVKGRFTISRDNAKNTVYLQMNSLKPEDTAVYYCAARYYWGAEAGYYYWGQGTQVTVSS	high polyreactivity
QVQLVESGGGLVQAGGSLRLSCAASGFIFNKYAMGWYRQAPGKERELVATIRRDGSTNYADSVKGRFTISRDNAKNTVYLQMNSLIPEDTAVYYCAVRPYYWSRDYYWGQGTQVTVSS	high polyreactivity
QVQLQESGGGLVQVGGSLRLSCAASGTIFIYGFLGWNRQAPGKERELVASINLGGITNYADSVKGRFTISRDNAKNTVYLQMISLKPEDTAVYYCAAYVVTGQNYGYWGQGTQVTVSC	low polyreactivity
QVQLVESGGGLVQAGGSLRLSCAASGFTFYPNAMGWYRQAPGKEWELVAAISRSGSSTYYADSVKGRFTISRDNAKNTVYLQMNSVKPEDTAVYDCNRYGRQYDFYYWGQGTQVTVSS	high polyreactivity
QVHLVESGGGLVQAGGSLRVSCDASGILYTVYAMGWYRQAPGKQRELVAAITWSGGSTYYADSVKGRFTISRDNAKNTVYLQMNSLKPEDTEVYYCNTVGRVWDVETDGDYDYWGQGTQVTVSS	low polyreactivity
QVQLVESGGGLVQAGGSLRLSCAASGSIFTYYAMGWYRQAPGKERELVAAISLDGGSTYYADSVKGRFTISRDNAKNTVYLQMNSLKPEDTAVYYCAADYRFFPYTYLYDYWGQGTQVTVSS	low polyreactivity
QVQLVESGGGLVQAGGSLRLRCAASGSTFVRYAMGWYREAAGKEMELVAAISSRGGSTYYADSVKGRFTISRDNAKNTVYLQMNSLKPEDTAVYYCNAAAFINFMLYDYWGQGTQVTVSS	high polyreactivity
QVQLVESGGGLVQAGGSLRLSCAASGSTFYSNVMGWYRQAPGKEREFVAGISGSGGSTYYADSVKGRFTISRDNAKNTVYLQMNSLKPEDTAVYYCAKYRYSRYFRYDYWGQCTQVTVSS	high polyreactivity
QVQLVESGGGLVQAGGSLRLSCAASGFIFKAYAMGWYRQAPGKERELVASITSGDSTNYADSVKGRFTISRDNAKNTVYLQMNSLKPEDTAVYYCNADGWRWHRRKWVYGYDYWGQGTQVTVSS	low polyreactivity
QVQLVESGGGLVQAGGSLRLSCAASGSIFSRNAMGWYRPAPGKERELVAAITSSGGRTYYADSVKGRFTISRDNAKNTVYLQMNSLKPEDTAVYYCAARARGGDWGSGDYWGQGTQVTVSS	high polyreactivity

Sequence	polyreactivity (PSR sort gate)
QVQLVESGGGLVQAGGSLRLSCAASGSTFSPNAMGWYRQAPGKERELVAAITGGGSTYADSVKGRFTISRDNAKNTVYLQMNSLKPEDTAVYYFNADSYSFPYYYWGQGTQVTVSS	low polyreactivity
QVQLVESGGGLVQAGGSLRLSCAASGRTFYRNAMGWYRQAPGKETELVAAITWSGVSTYYADSVKGRFTISRDNAKNTVYIQMNSLKPEDTAVYYCSRARVLRNGHYFQLRNYDYWGQGPQVTVSS	high polyreactivity
QVQLVESGGALVQAGGSLRLSCAASGLTFEVYAMGWYRQAPGKESELVAAISSGGGSTYYADSVKGRFTISRDNAKNTVYLQMNSLKPEDTEVYYCNAVAKLYYWRYDYWGKGTQVTVSS	low polyreactivity
QGQLVESGGGLVQAGGSLLLSCAASGRTFYNYYTMGLYRQAPGKERELVAAISRSGSTNYADSVKGRFTISRDTAKNTVYLQMNSLKPEDTAVYYCARSYRSDGSRFGYWGQGTQVTVSS	low polyreactivity
QVQLVESGGGLVQAGGSLRLSCAASGSTFLSNAMGWYRQAPGKERELVASIDWSGVSTYYADSVKGRFTISRDNAKNTVYLQMNSLNPEDTAVYYCAAEQVQSWDAYYQVEEYDYWGQGTQVTVSS	low polyreactivity
QVQLVESGGGLVQAGGSLRLSCAASGSIFASNALGWYRQAPGKERELVAAIDTSGGSTYYADSVKGRFTISRDNAKNTVYLQMNSLKPEDTAVYYCNTDWRDEYYPRYRASKFDYWGQGTQVTVSS	low polyreactivity
QVQLVESGGGLVQAGGSLRLRSAASGIILGKYAMGWYRQAPGKERELVAAISGRGGRTYYADSVKGRFTISRDNAKNTVYLQMNSLKQEDTAVYYWWGQGTQVTVSS	low polyreactivity
QVQLVESGGGLVQAGGSLRLSCAASGITFVPNAMGWYRQAPGKERELVARIDNGVSTNYADSVKGRFTISRDNAKNTVYLQMNSLKPEDTAVYYCAKDGYWGDWDLYYWGQGTQVTVSS	low polyreactivity
QVQLVESGGGLVQAGGSLRLSCAASGSTFTRNAMGWYRQAPGKERELVAAITSSGGSTYYADSVKGRFTISRDNAKNTVYLQMNSLKPEDTAVYYCNADFRTYYDSEYDYWGQGTQVTVSS	low polyreactivity
QVQLVESGGGLVQAGGSLRLSCAASGYTFIVNAIGWYRQAPGKERELVAGISYRGGRTFYADSVKGRFTISRDNAKNTVYLQMNSLKPEDTAVYYCAARKTGIPFYNYDYWGQGTQVTVSS	low polyreactivity
QVQIEESGGGLVQAGGSLRLSCAASGRTFLHKDMGWYRPAPGKERELVAAINVSDGSTYYADSVKGRFTISRDNAKNTVYLQMNSLKPEDTAVYYCAKASYIIFRFEYRSGYDYWGQGTQVTVSS	low polyreactivity
QVQLVESGGGLVQAGGSLRLSCAPSGSTFRGNAMGWYRQAPGKERELVAAITRRGGSTYYADSVKGRFTISRDNAKNTVYLQMNSLKPEDTAVYYCAKVGRETEYAYWGQGTQVTVSS	high polyreactivity
QVKLVESGGGLVQAGGSLRLSCAASGSTFYHNAIGWYRQAPGKERELVARITRGGSTDYADSVKGRFTISRDNAKNTVYLQMNSLKPEDTEVYYCAADIGHFERFYWGQGTQVTVSS	low polyreactivity
QVQLVESGGVLVQAGGSLRLTCAAYGFSFSTYAMGWYRQAPGKERQLVASIDWSGDSTYYADSVKGRFTISRDNAKNTVYLQMNSLKPEDTAVYYCAADDASYPYIFDSYDYWGQGTQVTVSS	low polyreactivity
QVQLVESGVGLVQAGGSLRLSCAASGIIFTSNTMGWYRPAPGKEREFVASINWNGSSTYADSVKGRFTISRDNAKNTVYLQMNSLKPEDTAVYYCNADYKRNSVQFSLYDYWGQGTQVTVSS	low polyreactivity
QVQLVESRGGLVQAGGSLRLSSAASGRTFRSYVMGWYTPAPGKERQLVAAITRSGGSTYYADSVKGRFTISRDNAKNTVYLQMNSLKPEDTAVYYCATDRWYYYPDYYPYGEYDYWGQGTQVTVSS	low polyreactivity
QVQLVESGGGLVQAGGSLRLSCAASGSTFGTYAMGWYRQAPGKERELVATISIGGITYYADSVKGRFTISRDNAKNTVYLQMNSLKPEDTAVYYCAKDVTDPTSRSDPSGDDYWGQGTQVTVSS	low polyreactivity
QVQLVESGGGLVQAGGSLRLSSAASGITFTRNAMGWYRQAPGKERELVATIDSGDSTYYADSVKGRFTISRDNAKNTVYLQMNSQKPEDTAVYYCAAEWYGYEPSYWYYWPYEYWGQGTQVTVSS	high polyreactivity
QVQLVESGGGLVQAGGSLRLSCSASGSTFHPYAMGWYRQAPGKERELVAAINSGDNTYYADSVKGRFTITRDNAKNTVYLQMNSLKPEDTAVYYCAVRYWDESHTEYDYWGQGTQVTVSS	low polyreactivity
QVQLVESGGGLVQAGGSLRLSCAASGFTFYYNDMGWYRQAPGKERELVATITNS	low polyreactivity
QVQLVESRGGLVQAAGSLRLSCAASGGTFDINAMGWYRQAHGKEREFVAAISSYDDGTYYADSVKGRFTISRDNAKNTVYLQMNSLKPEDTAVYYCAAEGYYDYLYRHYYWGQGTLVTVSS	low polyreactivity
